Laboratory results as given in paper PMC10104074.

Biological target: globupain zymogen (wild-type, signal-free, C-terminal 6xHis) (unclassified Archaeoglobus species (metagenome, Soria Moria hydrothermal vent field))
Assay: SEC + AUC

globupain zymogen (wild-type, signal-free, C-terminal 6xHis) (enzyme)
stoichiometry N: 2
